Assay results published in EP1106183A2.

What was measured:
[1] = molecular target: human ErbB2 on BT474 human breast tumor cells (human) (UniProt P04626); experiment: cell-based or functional assay
[2] = molecular target: human ErbB2 on BT474 human breast tumor cells (human) (UniProt P04626); experiment: Scatchard analysis; 125I-labelled antibody on BT474 cell monolayers, 4 h on ice

Substance	% apoptosis of BT474 cell population (Hoechst 33342 cell cycle analysis, 3 days) [1] [%]	proportion of S-phase cells (BT474, 3 days) [1] [%]	Kd [2] [nM]
anti-ErbB2 IgG1κ murine monoclonal antibody 4D5	41.9	5.4	6.5
anti-ErbB2 IgG1κ murine monoclonal antibody 7C2	60.5	64.9	–
